{
  "source": "patent US11732043",
  "about": "(MERUS N V, dated 2023)",
  "binders": {"B1": {"name": "MG7139 (monovalent) (bispecific antibody, V domains shown)", "VH 1": "QVQLVQSGAEVKKPGSSVKVSCKASGGTFSNFAFSWVRQAPGQGLEWMGGIIPMFDTAKYAQKFQGRVTIIADKSTNTAYMDLNSLRSEDTAVYYCVRDRAIGTLYYFDYWGQGTLVTVSS", "VH 2": "not shown", "VL": "not shown"}, "B2": {"name": "MG7185 (monovalent) (bispecific antibody, V domains shown)", "VH 1": "QVQLVQSGAEVKKPGSSVKVSCKTSGGTFSNYAFSWVRQAPGQGLEWMGGIIPIFGSTNYAQSFQGRVTITADKSTSTAYMELSSLRSEDTAVYYCARDREMGTLYFFDQWGQGTTVTVSS", "VH 2": "not shown", "VL": "not shown"}, "B3": {"name": "MG7133 (monovalent) (bispecific antibody, V domains shown)", "VH 1": "EVQLVQSGAEVKKPGSSVKVSCKASGGTFSSHAISWVRQVPGQGLEWMGGIIPLFDTAKNAQKFQGRVTITADKSTSTAYMELSSLRSEDTAVYYCARDRETGTLYYFDYWGQGTLVTVSS", "VH 2": "not shown", "VL": "not shown"}, "B4": {"name": "MG7106 (monovalent) (bispecific antibody)", "VH 1": "QVQLVQSGAEVKKPGSSVKVSCKASGGTFSKYVVSWVRQAPGQGFDWMGGIIPMFGTANYAQMFQGRVTITADKSTSTVNMELSSLRSEDTAVYYCVRDKAVAGLYYFDSWGQGTLVTVSS", "VH 2": "not shown", "light": "not shown"}, "B5": {"name": "MG7524 (monovalent) (bispecific antibody, V domains shown)", "VH 1": "QVQLVQSGAEVKKPGASVKVSCKASGYTFTSYGISWVRQAPGQGLEWMGWISAYSGNTNYAQKLQGRVTMTTDTSTSTAYMELRSLRSDDTAVYYCARGSILAAQMWGDIWGQGTLVTVSS", "VH 2": "not shown", "VL": "not shown"}, "B6": {"name": "MG7144 (monovalent) (bispecific antibody, V domains shown)", "VH 1": "QVQLVQSGAEVRKPGSSVMVSCKASGGTFSTYAINWLRQAPGQGLEWMGGIIPIFGTPYYGQRFQGRVTITADKSTNTVFMELSSLRSEDTAIYYCARDRDSGGLYYFDSWGQGTLVTVSS", "VH 2": "not shown", "VL": "not shown"}, "B7": {"name": "MG7137 (monovalent) (bispecific antibody)", "VH 1": "QVQLVQSGAEVKRPGASVKVSCKVSGYTLTELSMHWVRQAPGKGLEWMGGSDPEHGETVDAQKFQGRVTMTEDTSTDTAYMELSSLRSEDTAVYYCTTGGTYYYGSGSYYTLDFWGQGTLVTVSS", "VH 2": "not shown", "light": "not shown"}, "B8": {"name": "bivalent LAG-3 IgG with MF7134 variable domains (antibody, V domains shown)", "VH": "EVQLVQSGSELKKPGASVKVSCKASGYTFTTNALNWVRQAPGQGLEWMGWINTHTGNPTYAQGFIGRFVFSLDTSVSTAYLQIRSLKAEDTAVYYCAREPNWGVYFDYWGQGTLVTVSS", "VL": "not shown"}, "B9": {"name": "bivalent LAG-3 IgG with MF7096 variable domains (antibody, V domains shown)", "VH": "QVQLQESGPGLVRPSETLSLTCTVSGGSISSYSWSWIRQPPGKGLEWIGYIDYSGSTNYNPSLKSRVTISVDTSKTQFSLKLSSVSAADTAVYYCAKDLLYKWNYVEGFDIWGQGTTVTVSS", "VL": "not shown"}, "B10": {"name": "bivalent LAG-3 IgG with MF7097 variable domains (antibody, V domains shown)", "VH": "B9 VH with R13K, S56T, Y59F, T117M", "VL": "not shown"}, "B11": {"name": "bivalent LAG-3 IgG with MF7100 variable domains (antibody, V domains shown)", "VH": "EVQLVESGGGVVQPGRSLRLSCAASGFTFSSYDTHWVRQAPGKGLEWVAVISYDGSNKYYADSVKGRFTISRDNSKNTLYLQMNSLRAEDTAMYYCARERGWDVFDIWGQGTLVTVSS", "VL": "not shown"}, "B12": {"name": "bivalent LAG-3 IgG with MF7185 variable domains (antibody, V domains shown)", "VH": "B2 VH 1", "VL": "not shown"}, "B13": {"name": "bivalent LAG-3 IgG with MF7111 variable domains (antibody, V domains shown)", "VH": "QVQLQESGPGLVKPSETLSLTCTVSDDSISDYYWSWIRQPPGKGLEWIGYIYYSGNTKYNPSLKNRVTISVDTSKSQFSLKLTSVTAADTAVYYCARIPLTGEFDYWAQGTLVTVSS", "VL": "not shown"}, "B14": {"name": "bivalent LAG-3 IgG with MF7518 variable domains (antibody, V domains shown)", "VH": "QVQLVQSGAEVKKPGASVKVSCKASGYTFTSYGISWVRQAPGQGLEWMGWISAYSGNTNYAQKLQGRVTMTTDTSTSTAYMELRSLRSDDTAVYYCARDGSGWDDFDYWGQGTLVTVSS", "VL": "not shown"}, "B15": {"name": "bivalent LAG-3 IgG with MF7167 variable domains (antibody, V domains shown)", "VH": "EVQLVESGGGLVQPGGSLRLSCAASGFTFSSYAMNWVRQAPGKGLEWVSTISGSGVSTYYADSVKGRFTISRDNSKNTLYLQMNTLRAEDTAVYYCAKDRGYDYSGSYHNWFDPWGQGTLVTVSS", "VL": "not shown"}, "B16": {"name": "bivalent LAG-3 IgG with MF7106 variable domains (antibody, V domains shown)", "VH": "B4 VH 1", "VL": "not shown"}, "B17": {"name": "PG7116, bivalent LAG-3 IgG with two MF7116 variable domains (antibody, V domains shown)", "VH": "EVQLVESGGGVVQPGRSLRLSCAASGFTFSSYGMHWVRQAPGKGLEWVAVISYHGSDKYYADSVKGRFTISRDNSKNTLYLQMNSLRAEDTAVYYCARDGDNWDVFDIWGQGTLVTVSS", "VL": "not shown", "notes": "Bivalent monospecific IgG"}, "B18": {"name": "bivalent LAG-3 IgG with MF7118 variable domains (antibody, V domains shown)", "VH": "EVQLVESGGGLVQPGGSLRLSCAASGFTFSSYAMSWVRQAPGKGLEWVSSISGGGVSTFYADSVKGRFTISRDNSKNTLYLQMNSLRAEDTAVYYCAIVPAAATPSGTYYWIFDLWGRGTLVTVSS", "VL": "not shown"}, "B19": {"name": "bivalent LAG-3 IgG with MF7137 variable domains (antibody, V domains shown)", "VH": "B7 VH 1", "VL": "not shown"}, "B20": {"name": "bivalent LAG-3 IgG with MF7146 variable domains (antibody, V domains shown)", "VH": "EVQLVQSGAEVKKPGSSVKVSCKASGGTFNNYFITWVRQAPGQGLEWMGGIIPSFGTGNYAQKFQGRVAITADKSTNTAYMELSSLRSEDTAIYYCVRDREVGAIYYFDYWGQGTMVTVSS", "VL": "not shown", "notes": "Bivalent monospecific IgG; copies: 2 + 2"}, "B21": {"name": "bivalent LAG-3 IgG with MF7165 variable domains (antibody, V domains shown)", "VH": "QVQLVQSGAEVRKPGASVKVSCKVSGYTLTELSIHWVRQAPGKGLEWMGAFDPEDGETIYAQKFQGRVTMTEDTSTDTAYMELSSLRSEDTAVYFCATGGTYYYGSGSYYTLDYWGQGTLVTVSS", "VL": "not shown", "notes": "as for B20"}, "B22": {"name": "bivalent LAG-3 IgG with MF7515 variable domains (antibody, V domains shown)", "VH": "QVQLVQSGAEVKKPGASVKVSCKASGYTFTSYGISWVRQAPGQGLEWMGWISAYSGNTNYAQKLQGRVTMTTDTSTSTAYMELRSLRSDDTAVYYCARRPGPALGDLDSWGQGTLVTVSS", "VL": "not shown", "notes": "as for B20"}, "B23": {"name": "H4sH15482P* (antibody, V domains shown)", "VH": "QVQLVESGGGVVQPGRSLRLSCVASGFTFSSYGMHWVRQAPGKGLEWVAIIWYDGSNKYYADSVKGRFTISRDNSKNTQYLQMNSLRAEDTAVYYCASVATSGDFDYYGMDVWGQGTTVTVSS", "VL": "EIVLTQSPATLSLSPGERTTLSCRASQRISTYLAWYQQKPGQAPRLLIYDASKRATGIPARFSGSGSGTGFTLTISSLEPEDFAVYYCQQRSNWPLTFGGGTKVEIKR"}},
  "note": "Positions count from the first letter of the chain named.",
  "data": [
    {"target": "T1, human LAG-3 (huLAG-3), full length, expressed on the cell surface (human, UniProt P18627 23-525)", "T1 sequence": "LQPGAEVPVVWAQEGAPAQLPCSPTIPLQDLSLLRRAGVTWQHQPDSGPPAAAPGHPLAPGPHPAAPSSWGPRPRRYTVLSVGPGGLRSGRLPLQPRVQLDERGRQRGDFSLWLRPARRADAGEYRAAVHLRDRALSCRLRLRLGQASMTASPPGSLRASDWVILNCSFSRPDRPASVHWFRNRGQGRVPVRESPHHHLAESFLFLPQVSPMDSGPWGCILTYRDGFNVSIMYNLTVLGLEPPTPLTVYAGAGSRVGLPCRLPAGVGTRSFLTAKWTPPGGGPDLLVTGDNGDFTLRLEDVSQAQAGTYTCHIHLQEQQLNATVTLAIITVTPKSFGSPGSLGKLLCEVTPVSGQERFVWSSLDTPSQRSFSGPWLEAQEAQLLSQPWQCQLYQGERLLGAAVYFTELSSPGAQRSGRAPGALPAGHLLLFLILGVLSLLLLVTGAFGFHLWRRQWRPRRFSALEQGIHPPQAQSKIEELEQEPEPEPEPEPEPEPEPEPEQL", "test": "not given", "units": {"EC50": "µg/mL"}, "values": [
      {"binder": "B1", "EC50": 5.71},
      {"binder": "B2", "EC50": 4.49},
      {"binder": "B3", "EC50": 11.2},
      {"binder": "B4", "EC50": 26.5},
      {"binder": "B5", "EC50": 4.2},
      {"binder": "B6", "EC50": 10.2},
      {"binder": "B7", "EC50": 1.68}
    ]},
    {"target": "T2, LAG-3 overexpressed on Jurkat/NFAT-RE reporter cells (Promega) (UniProt P18627 23-525)", "T2 sequence (looked up)": "T1 sequence", "test": "cell-based or functional assay", "values": [
      {"binder": "B8", "LAG-3 blockade reporter assay (Jurkat LAG-3 reporter cells with Raji MHCII cells), activity as bivalent IgG, AUC": "34.3 % of control"},
      {"binder": "B9", "LAG-3 blockade reporter assay (Jurkat LAG-3 reporter cells with Raji MHCII cells), activity as bivalent IgG, AUC": "35.7 % of control"},
      {"binder": "B10", "LAG-3 blockade reporter assay (Jurkat LAG-3 reporter cells with Raji MHCII cells), activity as bivalent IgG, AUC": "21.4 % of control"},
      {"binder": "B11", "LAG-3 blockade reporter assay (Jurkat LAG-3 reporter cells with Raji MHCII cells), activity as bivalent IgG, AUC": "39.8 % of control"},
      {"binder": "B12", "LAG-3 blockade reporter assay (Jurkat LAG-3 reporter cells with Raji MHCII cells), activity as bivalent IgG, AUC": "20.9 % of control"},
      {"binder": "B13", "LAG-3 blockade reporter assay (Jurkat LAG-3 reporter cells with Raji MHCII cells), activity as bivalent IgG, AUC": "51.2 % of control"},
      {"binder": "B14", "LAG-3 blockade reporter assay (Jurkat LAG-3 reporter cells with Raji MHCII cells), activity as bivalent IgG, AUC": "64.7 % of control"},
      {"binder": "B15", "LAG-3 blockade reporter assay (Jurkat LAG-3 reporter cells with Raji MHCII cells), activity as bivalent IgG, AUC": "-1.33 % of control"},
      {"binder": "B16", "LAG-3 blockade reporter assay (Jurkat LAG-3 reporter cells with Raji MHCII cells), activity as bivalent IgG, AUC": "16.3 % of control"},
      {"binder": "B17", "LAG-3 blockade reporter assay (Jurkat LAG-3 reporter cells with Raji MHCII cells), activity as bivalent IgG, AUC": "57.1 % of control"},
      {"binder": "B18", "LAG-3 blockade reporter assay (Jurkat LAG-3 reporter cells with Raji MHCII cells), activity as bivalent IgG, AUC": "2.04 % of control"},
      {"binder": "B19", "LAG-3 blockade reporter assay (Jurkat LAG-3 reporter cells with Raji MHCII cells), activity as bivalent IgG, AUC": "51.2 % of control"}
    ]},
    {"target": "T1, human LAG-3 (huLAG-3), full length, …", "test": "not given", "remark": "another data set of the same source", "units": {"EC50 (read off the curve)": "µg/mL"}, "values": [
      {"binder": "B17", "EC50 (read off the curve)": "~0.1"}
    ]},
    {"target": "T1, human LAG-3 (huLAG-3), full length, …", "test": "FACS on HEK293T cells with mouse/human LAG-3 hybrid constructs, bivalent IgG; bin = human domain bound", "values": [
      {"binder": "B20", "binding result": "binds"},
      {"binder": "B21", "binding result": "binds"},
      {"binder": "B22", "binding result": "binds"}
    ]},
    {"target": "T1, human LAG-3 (huLAG-3), full length, …", "test": "not given", "remark": "another data set of the same source", "units": {"EC50 (read off the curve)": "µg/mL"}, "values": [
      {"binder": "B23", "EC50 (read off the curve)": "~0.1"}
    ]}
  ]
}
